Experimental data: paper PMC8442604 (Frontiers in Immunology, 2021)

B1: CB6H-XG83L (antibody, V domains shown)
VH: EVQLVESGGGLVQPGGSLRLSCAASGFTVSSNYMSWVRQAPGKGLEWVSVIYSGGSTFYADSVKGRFTISRDNSMNTLFLQMNSLRAEDTAVYYCARVLPMYGDYLDYWGQGTLVTVSS
VL: QSVLTQPPSVSGAPGQRVTISCTGSSSNIGAGYDVHWYQQLPGTAPKLLIYGDSNRPSGVPDRFSGSKSGTSASLAITGLQAEDEADFYCQSYDSSLSTSIFGGGTKLTVL
B2: CB6 (antibody, V domains shown)
VH: B1 VH
VL: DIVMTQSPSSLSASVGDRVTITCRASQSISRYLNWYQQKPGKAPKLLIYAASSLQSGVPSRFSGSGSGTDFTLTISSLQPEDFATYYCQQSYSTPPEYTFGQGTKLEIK
B3: REGN10933 (antibody, V domains shown)
VH: QVQLVESGGGLVKPGGSLRLSCAASGFTFSDYYMSWIRQAPGKGLEWVSYITYSGSTIYYADSVKGRFTISRDNAKSSLYLQMNSLRAEDTAVYYCARDRGTTMVPFDYWGQGTLVTVSS
VL: DIQMTQSPSSLSASVGDRVTITCQASQDITNYLNWYQQKPGKAPKLLIYAASNLETGVPSRFSGSGSGTDFTFTISGLQPEDIATYYCQQYDNLPLTFGGGTKVEIK
B4: 2-4 (antibody, V domains shown)
VH: QVQLVQSGAEVKKPGASVKVSCKASGYTFTGYYMHWVRQAPGQGLEWMGWINPNSGGTNYTQMFQGRVTMTRDTSISTAYMEVSRLRSDDTAVYYCARDRSWAVVYYYMDVWGKGTTVTVSS
VL: QSALTQPPSASGSPGQSVTISCTGTSSDVGGYNYVSWYQQHPGKAPKLMIYEVSKRPSGVPDRFSGSKSGNTASLTVSGLQAEDEADYYCSSYAGSNNLVFGGGTKLTVL
B5: REGN10987 (antibody, V domains shown)
VH: QVQLVESGGGVVQPGRSLRLSCAASGFTFSNYAMYWVRQAPGKGLEWVAVISYDGSNKYYADSVKGRFTISRDNSKNTLYLQMNSLRTEDTAVYYCASGSDYGDYLLVYWGQGTLVTVSS
VL: QSALTQPASVSGSPGQSITISCTGTSSDVGGYNYVSWYQQHPGKAPKLMIYDVSKRPSGVSNRFSGSKSGNTASLTISGLQSEDEADYYCNSLTSISTWVFGGGTKLTVL
B6: EY6A (antibody, V domains shown)
VH: EVQLVESGGGVVQPGRSLRLSCAASAFTFSSYDMHWVRQAPGKGLEWVAVISYDGSNKYYADSVKGRFTISRDNSKNTLYLQMNSLRAEDTAVYYCAKDGGKLWVYYFDYWGQGTLVTVSS
VL: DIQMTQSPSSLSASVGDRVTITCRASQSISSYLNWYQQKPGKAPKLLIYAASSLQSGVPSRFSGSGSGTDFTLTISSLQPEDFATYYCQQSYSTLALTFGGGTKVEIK
B7: LCA60 (antibody, V domains shown)
VH: EVQLLESGGGLVKPGGSLRLSCEASGLTFSNVWMSWVRQAPGKGLEWVGRIKRKSEGATTDYGAPVKGRFTLSRDDSKNTVYLQMNSLKIDDTAVYYCSTLTRGGDVWSSSYYFDYWGQGALVTVSS
VL: QSALTQPASVSGSPGQSITISCTGTSSDVGTYDLVSWYQQHPGKSPKLMIYADIKRPSGVSHRFSGSKSGNTASLTISGLQSADEADYYCCLYAGSSTSVIFGGGTKVT
notes: also called MERS nAb LCA60
B8: CC12.3 (antibody, V domains shown)
VH: QVQLVESGGGLIQPGGSLRLSCAASGFTVSSNYMSWVRQAPGKGLEWVSVIYSGGSTFYADSVKGRFTISRDNSKSTLYLQMNSLRVEDTAVYYCARDFGDFYFDYWGQGTLVTVSS
VL: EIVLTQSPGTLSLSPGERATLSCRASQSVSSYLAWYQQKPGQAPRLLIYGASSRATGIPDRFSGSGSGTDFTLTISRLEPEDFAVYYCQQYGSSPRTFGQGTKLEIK
B9: B38 (antibody, V domains shown)
VH: EVQLVESGGGLVQPGGSLRLSCAASGFIVSSNYMSWVRQAPGKGLEWVSVIYSGGSTYYADSVKGRFTISRHNSKNTLYLQMNSLRAEDTAVYYCAREAYGMDVWGQGTTVTVSS
VL: DIVMTQSPSFLSASVGDRVTITCRASQGISSYLAWYQQKPGKAPKLLIYAASTLQSGVPSRFSGSGSGTEFTLTISSLQPEDFATYYCQQLNSYPPYTFGQGTKLEIK
B10: C105 (antibody, V domains shown)
VH: QVQLVESGGGLIQPGGSLRLSCAASGFTVSSNYMSWVRQAPGKGLEWVSVIYSGGSTYYADSVKGRFTISRDNSKNTLYLQMNSLRAEDTAVYYCARGEGWELPYDYWGQGTLVTVSS
VL: QSALTQPPSASGSPGQSVTISCTGTSSDVGGYKYVSWYQQHPGKAPKLMIYEVSKRPSGVPDRFSGSKSGNTASLTVSGLQAEDEADYYCSSYEGSNNFVVFGGGTKLTVL
B11: 4A8 (antibody, V domains shown)
VH: EVQLVESGAEVKKPGASVKVSCKVSGYTLTELSMHWVRQAPGKGLEWMGGFDPEDGETMYAQKFQGRVTMTEDTSTDTAYMELSSLRSEDTAVYYCATSTAVAGTPDLFDYYYGMDVWGQGTTVTVSS
VL: EIVMTQSPLSSPVTLGQPASISCRSSQSLVHSDGNTYLSWLQQRPGQPPRLLIYKISNRFSGVPDRFSGSGAGTDFTLKISRVEAEDVGVYYCTQATQFPYTFGQGTKVDIK

Target: T1, SARS-CoV-2 RBD protein (321–591) (SARS-CoV-2, Wuhan-Hu-1 (MN908947), UniProt P0DTC2)
Test: cell-based or functional assay
Settings: not given

Row | Binder | IC50 of neutralisation of authentic SARS-CoV-2 on Vero E6 cells (CPE assay) [µg/mL]
1 | B1 | 1.1

Target: T1, SARS-CoV-2 RBD protein (321–591)
Test: SPR
Settings: both partners purified

Row | Binder | Kd [nM]
2 | B1 | 0.58
3 | B2 | 43.8

Target: T1, SARS-CoV-2 RBD protein (321–591)
Test: ELISA
Settings: one partner purified

Row | Binder | binding result
4 | B3 | binds
5 | B4 | binds
6 | B5 | binds
7 | B6 | binds
8 | B7 | no binding
9 | B8 | binds
10 | B9 | binds
11 | B10 | binds
12 | B11 | no binding
